# Assay results: patent US20100239556A1, “PROMOTING ECM PRODUCTION BY FIBROBLAST CELLS AND/OR PROMOTING MIGRATION OF FIBROBLAST CELLS IN A BIOLOGICAL SYSTEM” (TGR BioScience Pty Ltd., priority 2006, published 2010)
# B1: myeloperoxidase (protein, UniProt P05164 165-745, looked up)
# Myeloperoxidase: VTCPEQDKYRTITGMCNNRRSPTLGASNRAFVRWLPAEYEDGFSLPYGWTPGVKRNGFPVALARAVSNEIVRFPTDQLTPDQERSLMFMQWGQLLDHDLDFTPEPAARASFVTGVNCETSCVQQPPCFPLKIPPNDPRIKNQADCIPFFRSCPACPGSNITIRNQINALTSFVDASMVYGSEEPLARNLRNMSNQLGLLAVNQRFQDNGRALLPFDNLHDDPCLLTNRSARIPCFLAGDTRSSEMPELTSMHTLLLREHNRLATELKSLNPRWDGERLYQEARKIVGAMVQIITYRDYLPLVLGPTAMRKYLPTYRSYNDSVDPRIANVFTNAFRYGHTLIQPFMFRLDNRYQPMEPNPRVPLSRVFFASWRVVLEGGIDPILRGLMATPAKLNRQNQIAVDEIRERLFEQVMRIGLDLPALNMQRSRDHGLPGYNAWRRFCGLPQPETVGQLGTVLRNLKLARKLMEQYGTPNNIDIWMGGVSEPLKRKGRVGPLLACIIGTQFRKLRDGDRFWWENEGVFSMQQRQALAQISLPRIICDNTGITTVSKNNIFMSNSYPRDFVNCSTLPALNLASWREAS
# B2: transforming growth factor β2 (protein, UniProt P61812 303-414, looked up)
# Transforming growth factor …: ALDAAYCFRNVQDNCCLRPLYIDFKRDLGWKWIHEPKGYNANFCAGACPYLWSSDTQHSRVLSLYNTINPEASASPCCVSQDLEPLTILYYIGKTPKIEQLSNMIVKSCKCS
# notes: control agent, fibrogenic factor (R&D Systems)
# Assays:
# [1] = system: human foreskin fibroblast cells (HFF); assay: Alamar blue viability/growth assay; type: cell-based; conditions: 72 hours
# Method: Primary human foreskin fibroblast cells (HFF) were seeded into 96 well plates at a density of 1.2×10^4 cells/well and cultured overnight in 10% fetal bovine serum/Dulbecco's minimum essential media (10% FBS/DMEM) at 37° C. and 5% CO2. The cells were then starved overnight in serum free DMEM and triplicate wells treated for six hours with a range of doses of proteins with peroxidase activity; horse radish peroxidase (HRP; 0.2-50 ug/ml), Arthromyces ramosus peroxidase (ARP; 0.2-50 ug/ml), microperoxidase (MP; 8-500 ug/ml), soy bean peroxidase (SBP; 0.2-100 ug/ml) and lactoperoxidase (LP; 10-310 ug/ml) (all obtained from Sigma-Aldrich). […] After 72 hours the culture media was collected for assessment of secreted, soluble collagen types I, III and VI as well as fibronectin protein and the cells assessed for viability/growth using an alamar blue fluorescent dye assay. […] Briefly, cells were bathed in a 10% Alamar Blue/phosphate-buffered saline (PBS) solution for 30-60 minutes and fluorescence measured at wavelengths of 485 nm excitation and 595 nm emission using a Wallac Victor Multilabel HTS counter. Relative fluorescent units (RFU) for each sample were normalized to control wells (DMEM only treated cells) and data expressed as mean±standard error of the mean (sem) for triplicate wells. […]
# HFF cells = assay: Collagen I production in the presence of dexamethasone; type: cell-based, human
# Method: (§1) Primary human foreskin fibroblast cells (HFF) were seeded into 96 well plates at a density of 1.2×10^4 cells/well and cultured overnight in 10% fetal bovine serum/Dulbecco's minimum essential media (10% FBS/DMEM) at 37° C. and 5% CO2. The cells were then starved overnight in serum free DMEM and triplicate wells treated for six hours with a range of doses of proteins with peroxidase activity; horse radish peroxidase (HRP; 0.2-50 ug/ml), Arthromyces ramosus peroxidase (ARP; 0.2-50 ug/ml), microperoxidase (MP; 8-500 ug/ml), soy bean peroxidase (SBP; 0.2-100 ug/ml) and lactoperoxidase (LP; 10-310 ug/ml) (all obtained from Sigma-Aldrich). At the end of the six hour treatment period, the media was aspirated and replaced with fresh serum free DMEM and the cells cultured for a further 72 hours. After 72 hours the culture media was collected for assessment of secreted, soluble collagen types I, III and VI as well as fibronectin protein and the cells assessed for viability/growth using an alamar blue fluorescent dye assay. This assay measures the reduction of oxidized, blue nonfluorescent Alamar Blue reagent to a pink fluorescent dye in the cell medium, such that the higher the amount of reduction, the greater the cell number and/or activity (O'Brien Eur J Biochem 267 2000). Briefly, cells were bathed in a 10% Alamar Blue/phosphate-buffered saline (PBS) solution for 30-60 minutes and fluorescence measured at wavelengths of 485 nm excitation and 595 nm emission using a Wallac Victor Multilabel HTS counter. Relative fluorescent units (RFU) for each sample were normalized to control wells (DMEM only treated cells) and data expressed as mean±standard error of the mean (sem) for triplicate wells. Experiments were repeated at least three times with the combined data from all experiments shown.
# The amount of soluble collagen types I, III, and VI in HFF conditioned media was measured by a direct coat ELISA method using standard curves constructed from purified human collagen I, III or VI (extracted from human placenta; col I, BD Biosciences; col III and VI, Rocklands Immunochemicals) and fibronectin (extracted from human plasma, Chemicon). Samples and standards (20 μl/well) were added to a 384 well spectraplate (Packard BioScience) and left at room temperature (RT) overnight. […] After a final wash (6×PBS-T), enhancement solution was added for at least 10 minutes and fluorescence measured at excitation 340 nm and emission 615 nm using a Wallac Victor Multilabel HTS counter. The respective ECM concentration of each sample was determined from the standard curve (μg/ml) and normalized to control wells (DMEM only treated cells) with the mean±sem for triplicate wells calculated. […]
# [2] = system: human foreskin fibroblast cells (HFF); assay: Soluble collagen I, III and VI in HFF conditioned media (direct coat ELISA); type: cell-based; conditions: 30 μg/ml, 72 hours
# Method: as §1, with “After 72 hours the culture media was collected for assessment of secreted, soluble collagen types I, III and VI as well as fibronectin protein and the cells assessed for viability/growth using an alamar blue fluorescent dye assay.” left out
# The amount of soluble collagen types I, III, and VI in HFF conditioned media was measured by a direct coat ELISA method using standard curves constructed from purified human collagen I, III or VI (extracted from human placenta; col I, BD Biosciences; col III and VI, Rocklands Immunochemicals) and fibronectin (extracted from human plasma, Chemicon). Samples and standards (20 μl/well) were added to a 384 well spectraplate (Packard BioScience) and left at room temperature (RT) overnight. The spectraplate was then washed 6 times with PBS-tween 0.05% (PBS-T) and 2.5% bovine serum albumin (BSA)/PBS blocking solution added to each well and the plate incubated for 1 hour at RT. The plate was then washed 6 times with PBS-T and primary antibody (0.25 μg/ml rabbit-anti-human-collagen I polyclonal; 2 μg/ml rabbit-anti-human-collagen III polyclonal; 0.25 μg/ml rabbit-anti-human-collagen VI polyclonal; 0.2 μg/ml rabbit-anti-human-fibronectin polyclonal, all from Rockland Immunochemicals) in 5% non-fat dairy milk added to each well for four hours at RT. After washing (6×PBS-T), europium tagged anti-rabbit secondary antibody (0.5 μg/ml 1% BSA/PBS; Wallac Oy) was added for 1 hour at RT. After a final wash (6×PBS-T), enhancement solution was added for at least 10 minutes and fluorescence measured at excitation 340 nm and emission 615 nm using a Wallac Victor Multilabel HTS counter. The respective ECM concentration of each sample was determined from the standard curve (μg/ml) and normalized to control wells (DMEM only treated cells) with the mean±sem for triplicate wells calculated. Experiments were repeated at least three times with the combined data from all experiments shown.
# [3] = system: human foreskin fibroblast cells (HFF cells); assay: Repeated stimulation of collagen I production; type: cell-based; conditions: further 5 days without second stimulation
# Method: Experiments were performed to ensure human fibroblast cells could be stimulated to increase ECM protein production by proteins having peroxidase activity after more than one application of the proteins having peroxidase activity. The capacity to respond repeatedly to the proteins having peroxidase activity provides important utility for the generation of ECM in vitro, particularly given that spent culture media needs to be replaced on a regular basis to maintain the viability of the cells. These experiments were performed using human foreskin fibroblast cells (HFF cells) seeded into 96 well plates at a density of 1.2×10^4 cells/well and cultured for one week in 10% fetal bovine serum/Dulbecco's minimum essential media (10% FBS/DMEM) at 37° C. and 5% CO2 (as described in Example 3). The confluent cells were then starved overnight in serum free DMEM and triplicate wells treated for six hours with MP, ARP and LP as representative proteins having peroxidase activity or the control agents transforming growth factor β2 (TGFβ2; R&D Systems) and 10% FBS (JRH BioSciences). After 48 hours, the conditioned media was collected for measurement of collagen I (as a representative ECM protein) and the cells either restimulated for six hours with fresh solutions containing proteins having peroxidase activity or control agents or the media was replaced with fresh serum free DMEM. The cells were cultured for a further 5 days after which the media was collected a second time for the measurement of collagen I. Media was also collected from replicate wells treated at the start of the experiment and left for 7 days (total culture period) for comparison.
# dermis = assay: Fibrogenic response after intradermal injection; type: in vivo, Sprague-Dawley rats; conditions: LP 125 μg, TGFβ 0.5 μg, 3 days
# Method: Groups of up to 4-8 female Sprague-Dawley rats were lightly anaesthetized and the dorsum shaved. At different sites on their dorsum, each rat received a bolus, intradermal injection of 4 doses of a protein with peroxidase activity (LP, […]; HRP, 1.25-25 μg; SBP, 1.25-25 μg; or micro-peroxidase [MP], 5-125 μg), a vehicle control or TGFβ2 as a positive control. Arthromyces ramosus peroxidase (ARP) was also injected at one dose of 25 μg. Proteins with peroxidase activity were injected in a volume of 50 μl which was sufficient to create a small blister in the skin that resolved within a few minutes. Across the group of rats, each dose of proteins with peroxidase activity was injected into each of the different injection sites to control for any site-related, intra-rat variation. The rats were returned to their cage and left alone for 3 days after which they were killed by CO2 asphyxiation and the skin at the injection sites collected for analysis. The skin at the injection sites was excised using a 6 mm biopsy punch with each piece bisected and fixed in 10% buffered formalin. Fixed tissue was processed for histological assessment by graded dehydration and mounting in paraffin blocks. Blocks were sectioned and sections stained with haematoxylin and eosin (H&E) and Masson's trichrome for qualitative analysis by an experienced pathologist. H&E stained sections were scored for the “fibroblast reaction” (1+-4+) to reflect the number of fibroblast cells identified at the injection site, with 4+ representing the greatest response. H&E and Massons trichrome stained sections were used to evaluate the amount of deposited, collagen-rich extracellular matrix (ECM) that was associated with the fibroblast reaction at each injection site. The collagen-rich ECM deposition was scored 1+-3+ with 3+ representing the greatest response. The scores were combined across the group of rats and statistical analysis performed using a Kruskal-Wallis one way analysis of variance on ranks (ANOVA) followed by post-hoc t-test comparing the response of the proteins with peroxidase activity to the control using Dunn's or Dunnett's method, p<0.05 was considered significant.
molecule,measurement,setting,value
recombinant ascorbate peroxidase [APX],HFF cell growth or viability,[1],Neither APX nor MPO had a major effect
"C[C@@H]1C[C@H]2[C@@H]3CCC4=CC(=O)C=C[C@]4(C)[C@@]3(F)[C@@H](O)C[C@]2(C)[C@@]1(O)C(=O)CO [dexamethasone, reference compound]",inhibition at 20 µM,"HFF cells; Homo sapiens, HFF, dexamethasone 20 μM, read-out: inhibition of collagen stimulated by ARP",~30%
B1,increase in collagen I production,[2],3 fold
same,HFF cell growth or viability,[1],Neither APX nor MPO had a major effect
B2,collagen I production when left untreated after the media change at day 2,[3],maintained level of collagen I production
same,number of fibroblasts present at the injection site (H&E images),dermis,profound increase in the number of fibroblasts
same,maximum increase in collagen I levels,"HFF cells; 1-10 ng/ml, no dexamethasone",2-2.5 fold
